Measured values published in the supplement of paper PMC9112550, “Optimization of the antimicrobial peptide Bac7 by deep mutational scanning” (BMC Biology, 2022).

System: Escherichia coli TOP10
Experiment: shrunken log2 fold change of peptide-encoding DNA abundance (4.5 h post-induction vs induction); higher = less antimicrobial activity (less host growth inhibition)
Details: time post-induction: 4.5 h; library: site-saturation at positions 5, 18, 19, 20
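Further: peptides expressed intracellularly from a pBAD plasmid library in pooled LB shake-flask culture, induced with 0.3% L-arabinose, DNA abundance read by NGS, three biological replicates, DESeq2 with apeglm shrinkage.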

Sequence | shrunken log2 fold change
RRIRWRPPRLPRPRPRPKHPPRP | 0.442
RRIRDRPPRLPRPRPRPILTPRP | -0.0144
RRIRMRPPRLPRPRPRPIVKPRP | 0.0312
RRIRPRPPRLPRPRPRPPPEPRP | 0.492
RRIRPRPPRLPRPRPRPWDHPRP | -0.106
RRIRYRPPRLPRPRPRPRRGPRP | 0.114
RRIRQRPPRLPRPRPRPARWPRP | 0.781
RRIRRRPPRLPRPRPRPSNEPRP | -0.105
RRIRIRPPRLPRPRPRPYMFPRP | -0.892
RRIRLRPPRLPRPRPRPRYYPRP | -0.103
RRIRRRPPRLPRPRPRPWVPPRP | -0.0825
RRIRSRPPRLPRPRPRPPHMPRP | -0.0602
RRIRSRPPRLPRPRPRPLMLPRP | -0.581
RRIRWRPPRLPRPRPRPEAAPRP | 1.76
RRIRPRPPRLPRPRPRPTHSPRP | 0.185
RRIRLRPPRLPRPRPRPDPTPRP | 0.0311
RRIRVRPPRLPRPRPRPQCMPRP | -0.528
RRIRTRPPRLPRPRPRPVELPRP | -0.0533
RRIRPRPPRLPRPRPRPDPVPRP | 0.214
RRIRDRPPRLPRPRPRPQCMPRP | -0.0894
RRIRNRPPRLPRPRPRPQKPPRP | 0.0646
RRIRCRPPRLPRPRPRPHMIPRP | -0.0573
RRIRNRPPRLPRPRPRPLYDPRP | -0.0765
RRIRLRPPRLPRPRPRPAHVPRP | 0.241
RRIRRRPPRLPRPRPRPKCVPRP | -0.29

Sequence | shrunken log2 fold change
RRIRHRPPRLPRPRPRPIKQPRP | -0.0565
RRIRSRPPRLPRPRPRPFAVPRP | -0.113
RRIRFRPPRLPRPRPRPAFCPRP | 0.0477
RRIRFRPPRLPRPRPRPLGHPRP | -0.0599
RRIRNRPPRLPRPRPRPAKTPRP | 0.0732
RRIRKRPPRLPRPRPRPAMVPRP | 0.87
RRIRERPPRLPRPRPRPHVKPRP | -0.767
RRIRFRPPRLPRPRPRPQAQPRP | 0.023
RRIRHRPPRLPRPRPRPLWTPRP | -0.174
RRIRSRPPRLPRPRPRPVHHPRP | 0.0874
RRIRFRPPRLPRPRPRPVAHPRP | -0.113
RRIRERPPRLPRPRPRPTETPRP | -0.00327
RRIRNRPPRLPRPRPRPRIQPRP | 0.0619
RRIRRRPPRLPRPRPRPFQTPRP | 0.0413
RRIRARPPRLPRPRPRPQHRPRP | -0.281
RRIRARPPRLPRPRPRPHKFPRP | -0.0967
RRIRARPPRLPRPRPRPGIGPRP | 0.524
RRIRMRPPRLPRPRPRPRWNPRP | 0.197
RRIRWRPPRLPRPRPRPFSDPRP | -0.0111
RRIRQRPPRLPRPRPRPMWFPRP | 0.153
RRIRQRPPRLPRPRPRPRHEPRP | -0.131
RRIRVRPPRLPRPRPRPTSTPRP | -0.103
RRIRLRPPRLPRPRPRPLWDPRP | 0.466
RRIRKRPPRLPRPRPRPMHDPRP | 0.321
RRIRPRPPRLPRPRPRPPKNPRP | 0.26

Sequence | shrunken log2 fold change
RRIRFRPPRLPRPRPRPSIWPRP | -0.111
RRIRNRPPRLPRPRPRPEWMPRP | 0.066
RRIRQRPPRLPRPRPRPISAPRP | -0.0212
RRIRMRPPRLPRPRPRPMYRPRP | -0.0586
RRIRPRPPRLPRPRPRPPCIPRP | 0.00615
RRIRPRPPRLPRPRPRPYNEPRP | -0.458
RRIRFRPPRLPRPRPRPFMPPRP | -0.469
RRIRIRPPRLPRPRPRPTDAPRP | -0.0317
RRIRERPPRLPRPRPRPPKSPRP | 0.21
RRIRARPPRLPRPRPRPQKCPRP | 0.0806
RRIRLRPPRLPRPRPRPPTEPRP | 0.296
RRIRVRPPRLPRPRPRPHCRPRP | 0.199
RRIRWRPPRLPRPRPRPMHNPRP | -0.218
RRIRQRPPRLPRPRPRPGMWPRP | 0.191
RRIRYRPPRLPRPRPRPHHSPRP | -1.27
RRIRYRPPRLPRPRPRPFLEPRP | -0.775
RRIRPRPPRLPRPRPRPSSQPRP | -0.201
RRIRTRPPRLPRPRPRPVVWPRP | 0.617
RRIRKRPPRLPRPRPRPWDGPRP | -0.0231
RRIRYRPPRLPRPRPRPAEEPRP | 0.0567
RRIRMRPPRLPRPRPRPEHQPRP | 0.0185
RRIRSRPPRLPRPRPRPLITPRP | -0.012
RRIRERPPRLPRPRPRPLWQPRP | 0.113
RRIRGRPPRLPRPRPRPRMKPRP | 0.426
RRIRARPPRLPRPRPRPNMEPRP | -0.0484

Sequence | shrunken log2 fold change
RRIRMRPPRLPRPRPRPHERPRP | 1.04
RRIRPRPPRLPRPRPRPFRYPRP | -0.0865
RRIRERPPRLPRPRPRPEAHPRP | 0.201
RRIRDRPPRLPRPRPRPMRGPRP | 0.937
RRIRDRPPRLPRPRPRPPGGPRP | 1.07
RRIRLRPPRLPRPRPRPTVFPRP | 0.156
RRIRVRPPRLPRPRPRPDLIPRP | 0.0639
RRIRCRPPRLPRPRPRPCHHPRP | -0.332
RRIRLRPPRLPRPRPRPHMEPRP | -0.101
RRIRHRPPRLPRPRPRPTTSPRP | -0.146
RRIRLRPPRLPRPRPRPAHWPRP | 0.608
RRIRWRPPRLPRPRPRPDAHPRP | 0.0254
RRIRFRPPRLPRPRPRPGHIPRP | -0.00306
RRIRPRPPRLPRPRPRPVEIPRP | 0.26
RRIRMRPPRLPRPRPRPMMTPRP | 0.141
RRIRARPPRLPRPRPRPDIMPRP | 0.0619
RRIRMRPPRLPRPRPRPEGIPRP | 2.03
RRIRNRPPRLPRPRPRPPPNPRP | 1.04
RRIRRRPPRLPRPRPRPLMSPRP | -0.246
RRIRTRPPRLPRPRPRPYMWPRP | -0.233
RRIRERPPRLPRPRPRPHCTPRP | -0.0432
RRIRGRPPRLPRPRPRPIMIPRP | 0.0216
RRIRMRPPRLPRPRPRPLCGPRP | 0.606
RRIRKRPPRLPRPRPRPPTNPRP | 0.654
RRIRKRPPRLPRPRPRPQVEPRP | 0.248

Sequence | shrunken log2 fold change
RRIRVRPPRLPRPRPRPTCFPRP | -0.155
RRIRTRPPRLPRPRPRPWHTPRP | -0.0217
RRIRKRPPRLPRPRPRPSVGPRP | 0.0485
RRIRGRPPRLPRPRPRPRLWPRP | 1.36
RRIRCRPPRLPRPRPRPVGIPRP | -0.24
RRIRVRPPRLPRPRPRPKERPRP | 0.0774
RRIRIRPPRLPRPRPRPIGEPRP | 0.0399
RRIRDRPPRLPRPRPRPRYFPRP | 0.242
RRIRPRPPRLPRPRPRPSVPPRP | -0.166
RRIRQRPPRLPRPRPRPVLVPRP | 0.328
RRIRDRPPRLPRPRPRPFVAPRP | 0.0541
RRIRRRPPRLPRPRPRPDQAPRP | -0.00925
RRIRRRPPRLPRPRPRPKIWPRP | 0.227
RRIRWRPPRLPRPRPRPLGQPRP | 0.0349
RRIRCRPPRLPRPRPRPCEYPRP | -0.163
RRIRKRPPRLPRPRPRPVEFPRP | 0.192
RRIRVRPPRLPRPRPRPSTDPRP | -0.0464
RRIRCRPPRLPRPRPRPKYYPRP | 0.167
RRIRKRPPRLPRPRPRPRDTPRP | 0.258
RRIRGRPPRLPRPRPRPNDSPRP | -0.0552
RRIRTRPPRLPRPRPRPYYIPRP | -0.845
RRIRRRPPRLPRPRPRPDSWPRP | 0.115
RRIRFRPPRLPRPRPRPCYYPRP | -0.401
RRIRPRPPRLPRPRPRPDTHPRP | -0.119
RRIRNRPPRLPRPRPRPEYWPRP | -0.103

Sequence | shrunken log2 fold change
RRIRARPPRLPRPRPRPMMIPRP | 0.313
RRIRLRPPRLPRPRPRPVATPRP | 0.282
RRIRFRPPRLPRPRPRPSDDPRP | -0.106
RRIRLRPPRLPRPRPRPAYVPRP | -0.177
RRIRNRPPRLPRPRPRPNYCPRP | 0.0133
RRIRYRPPRLPRPRPRPHRLPRP | -0.0157
RRIRARPPRLPRPRPRPPISPRP | 0.027
RRIRTRPPRLPRPRPRPHRLPRP | -0.387
RRIRDRPPRLPRPRPRPYNDPRP | -0.307
RRIRARPPRLPRPRPRPVEKPRP | 0.347
RRIRVRPPRLPRPRPRPLFDPRP | -0.172
RRIRARPPRLPRPRPRPFNYPRP | -0.0393
RRIRERPPRLPRPRPRPAWNPRP | 0.167
RRIRCRPPRLPRPRPRPKFQPRP | -0.0341
RRIRVRPPRLPRPRPRPRENPRP | 0.473
RRIRTRPPRLPRPRPRPMQWPRP | 0.0688
RRIRQRPPRLPRPRPRPDGSPRP | -0.0176
RRIRARPPRLPRPRPRPVHNPRP | 0.11
RRIRLRPPRLPRPRPRPYCMPRP | -1.34
RRIRNRPPRLPRPRPRPVPEPRP | 0.61
RRIRARPPRLPRPRPRPIHYPRP | -0.241
RRIRERPPRLPRPRPRPGEVPRP | 0.0814
RRIRRRPPRLPRPRPRPGINPRP | 0.016
RRIRYRPPRLPRPRPRPYKNPRP | -1.42
RRIRMRPPRLPRPRPRPCTYPRP | -0.00141
